What all share (conditions): one partner purified
The target of test [1] is T1, CD47 naturally expressed on CD47(+) Jurkat T lymphoma cells (human (endogenous in Jurkat), UniProt Q08722 19-323).
T1 construct: CD47, human, endogenous on the surface of Jurkat T lymphoma cells; also called cell-expressed CD47; native, cell surface expressed CD47; source: endogenous, on Jurkat cells (live or fixed in 4% paraformaldehyde)
As to the kind of experiment: laser scanning cytometry (LSC) on cells; competition on live CD47(+) Jurkat cells, 384-well, homogeneous: a fixed concentration of SIRPα-biotin (20 nM) co-incubated with a titration of the competitor or inhibitor, neutravidin-Alexa488.

The target of test [2] is T1, CD47 naturally expressed on CD47(+) …. Nature of the test: laser scanning cytometry (LSC) on cells; titration of SIRPα-biotin on Jurkat cells fixed in 4% paraformaldehyde (30 min on ice), homogeneous, neutravidin-Alexa488; with or without 1% DMSO.
For test [3] the target is unchanged. Nature of the test: laser scanning cytometry (LSC) on cells; titration of SIRPα-biotin on live DRAQ5-labelled Jurkat cells, 384-well, homogeneous (no wash), HEPES buffer (10 mM HEPES pH 7.5, 0.15 M NaCl), room temperature, neutravidin-Alexa488 0.5 μg/mL; SIRPα presented as a multimer on tetrameric neutravidin (avidity).

T1 sequence (Q08722 19-323): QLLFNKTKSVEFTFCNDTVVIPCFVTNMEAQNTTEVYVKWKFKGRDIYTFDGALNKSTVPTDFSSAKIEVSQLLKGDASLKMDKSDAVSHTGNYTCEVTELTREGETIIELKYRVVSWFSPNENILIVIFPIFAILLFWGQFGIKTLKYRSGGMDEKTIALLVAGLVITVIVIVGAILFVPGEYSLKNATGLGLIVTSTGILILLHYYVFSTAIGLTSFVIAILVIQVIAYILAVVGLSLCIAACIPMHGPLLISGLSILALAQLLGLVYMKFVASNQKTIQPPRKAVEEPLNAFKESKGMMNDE

B1: SIRPα variant 1, non-biotin conjugated (cold) (domain or fragment, human, UniProt P78324 31-148, looked up)
chain: EEELQVIQPDKSVLVAAGETATLRCTATSLIPVGPIQWFRGAGPGRELIYNQKEGHFPRVTTVSDLTKRNNMDFSIRIGNITPADAGTYYCVKFRKGSPDDVEFKSGAGTELSVRAKP
notes: SIRPα allelic variant 1, human; non-biotin conjugated analog of the biotin-conjugated d1 construct; also called cold SIRPαV1; non-biotin conjugated SIRPαV1; source: produced as described in [33]
B1: the IC50 in test [1] was 7500 nM.

B2: SIRPα-Avi-biotin (soluble, biotin-conjugated SIRPα d1 construct; allelic variant not stated for the experiment) (domain or fragment)
chain: EELQVIQPDKSVLVAAGETATLRCTATSLIPVGPIQWFRGAGPGRELIYNQKEGHFPRVTTVSDLTKRNNMDFSIRIGNITPADAGTYYCVKFRKGSPDDVEFKSG
modifications: biotin (biotin-conjugated, SIRPα-Avi-biotin)
As to B2, the EC50 was determined as 1.3 nM in test [2] and 4.6 nM in test [3].
